Experimental data from patent US20180155451A1 (published 2018).

T1: FcγRIIa R (extracellular domain with a His tag at the C terminus) (human, UniProt P12318 34-217)
T1 construct: extracellular domain; expressed in FreeStyle293 cells; also called FcgRIIa R; FcγRIIa type R; not shown: His tag at the C terminus
T1 sequence (looked up): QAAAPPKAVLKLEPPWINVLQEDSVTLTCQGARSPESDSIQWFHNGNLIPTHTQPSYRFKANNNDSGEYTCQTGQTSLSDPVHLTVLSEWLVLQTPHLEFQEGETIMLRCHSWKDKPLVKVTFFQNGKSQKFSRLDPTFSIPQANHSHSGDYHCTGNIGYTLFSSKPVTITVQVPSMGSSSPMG


Molecular target: T1, FcγRIIa R (extracellular domain with a …)
Experiment: SPR Biacore, relative binding

Row | Ho/Con_2aR | Binder
1 | 101 % of GpH7-B3/GpL16-k0 (=100) | GpH7-B3 variant A330_12R/GpL16-k0 (antibody, human IgG1, kappa, homodimerized; mutation in both H chains; also called Ho Ab) heavy: not shown light: DIVMTQSPLSLPVTPGEPASISCQASESLVHSNRNTYLHWYLQKPGQSPQLLIYKVSNRFSGVPDRFSGSGSGTDFTLKISRVEAEDVGVYYCSQNTHVPPTFGQGTKVEIERTVAAPSVFIFPPSDEQLKSGTASVVCLLNNFYPREAKVQWKVDNALQSGNSQESVTEQDSKDSTYSLSSTLTLSKADYEKHKVYACEVTHQGLSSPVTKSFNRGEC
2 | 105 % of GpH7-B3/GpL16-k0 (=100) | GpH7-B3 variant K334_08L/GpL16-k0 (antibody, human IgG1, kappa, homodimerized; mutation in both H chains; also called Ho Ab) heavy: not shown light: DIVMTQSPLSLPVTPGEPASISCQASESLVHSNRNTYLHWYLQKPGQSPQLLIYKVSNRFSGVPDRFSGSGSGTDFTLKISRVEAEDVGVYYCSQNTHVPPTFGQGTKVEIERTVAAPSVFIFPPSDEQLKSGTASVVCLLNNFYPREAKVQWKVDNALQSGNSQESVTEQDSKDSTYSLSSTLTLSKADYEKHKVYACEVTHQGLSSPVTKSFNRGEC
3 | 100 % of GpH7-B3/GpL16-k0 (=100) | GpH7-B3 variant K334_02A/GpL16-k0 (antibody, human IgG1, kappa, homodimerized; mutation in both H chains; also called Ho Ab) heavy: not shown light: DIVMTQSPLSLPVTPGEPASISCQASESLVHSNRNTYLHWYLQKPGQSPQLLIYKVSNRFSGVPDRFSGSGSGTDFTLKISRVEAEDVGVYYCSQNTHVPPTFGQGTKVEIERTVAAPSVFIFPPSDEQLKSGTASVVCLLNNFYPREAKVQWKVDNALQSGNSQESVTEQDSKDSTYSLSSTLTLSKADYEKHKVYACEVTHQGLSSPVTKSFNRGEC
4 | 108 % of GpH7-B3/GpL16-k0 (=100) | GpH7-B3 variant L328_13S/GpL16-k0 (antibody, human IgG1, kappa, homodimerized; mutation in both H chains; also called Ho Ab) heavy: not shown light: DIVMTQSPLSLPVTPGEPASISCQASESLVHSNRNTYLHWYLQKPGQSPQLLIYKVSNRFSGVPDRFSGSGSGTDFTLKISRVEAEDVGVYYCSQNTHVPPTFGQGTKVEIERTVAAPSVFIFPPSDEQLKSGTASVVCLLNNFYPREAKVQWKVDNALQSGNSQESVTEQDSKDSTYSLSSTLTLSKADYEKHKVYACEVTHQGLSSPVTKSFNRGEC
5 | 106 % of GpH7-B3/GpL16-k0 (=100) | GpH7-B3 variant K334_13S/GpL16-k0 (antibody, human IgG1, kappa, homodimerized; mutation in both H chains; also called Ho Ab) heavy: not shown light: DIVMTQSPLSLPVTPGEPASISCQASESLVHSNRNTYLHWYLQKPGQSPQLLIYKVSNRFSGVPDRFSGSGSGTDFTLKISRVEAEDVGVYYCSQNTHVPPTFGQGTKVEIERTVAAPSVFIFPPSDEQLKSGTASVVCLLNNFYPREAKVQWKVDNALQSGNSQESVTEQDSKDSTYSLSSTLTLSKADYEKHKVYACEVTHQGLSSPVTKSFNRGEC
6 | 133 % of GpH7-B3/GpL16-k0 (=100) | GpH7-B3 variant K326_04F/GpL16-k0 (antibody, human IgG1, kappa, homodimerized; mutation in both H chains; also called Ho Ab) heavy: not shown light: DIVMTQSPLSLPVTPGEPASISCQASESLVHSNRNTYLHWYLQKPGQSPQLLIYKVSNRFSGVPDRFSGSGSGTDFTLKISRVEAEDVGVYYCSQNTHVPPTFGQGTKVEIERTVAAPSVFIFPPSDEQLKSGTASVVCLLNNFYPREAKVQWKVDNALQSGNSQESVTEQDSKDSTYSLSSTLTLSKADYEKHKVYACEVTHQGLSSPVTKSFNRGEC

Continued, binder first:

Row | Binder | Ho/Con_2aR
7 | GpH7-B3 variant K326_20W/GpL16-k0 (antibody, human IgG1, kappa, homodimerized; mutation in both H chains; also called Ho Ab) heavy: not shown light: DIVMTQSPLSLPVTPGEPASISCQASESLVHSNRNTYLHWYLQKPGQSPQLLIYKVSNRFSGVPDRFSGSGSGTDFTLKISRVEAEDVGVYYCSQNTHVPPTFGQGTKVEIERTVAAPSVFIFPPSDEQLKSGTASVVCLLNNFYPREAKVQWKVDNALQSGNSQESVTEQDSKDSTYSLSSTLTLSKADYEKHKVYACEVTHQGLSSPVTKSFNRGEC | 120 % of GpH7-B3/GpL16-k0 (=100)
8 | GpH7-B3 variant G237_04F/GpL16-k0 (antibody, human IgG1, kappa, homodimerized; mutation in both H chains; also called Ho Ab) heavy: not shown light: DIVMTQSPLSLPVTPGEPASISCQASESLVHSNRNTYLHWYLQKPGQSPQLLIYKVSNRFSGVPDRFSGSGSGTDFTLKISRVEAEDVGVYYCSQNTHVPPTFGQGTKVEIERTVAAPSVFIFPPSDEQLKSGTASVVCLLNNFYPREAKVQWKVDNALQSGNSQESVTEQDSKDSTYSLSSTLTLSKADYEKHKVYACEVTHQGLSSPVTKSFNRGEC | 113 % of GpH7-B3/GpL16-k0 (=100)
9 | GpH7-B3 variant K326_03V/GpL16-k0 (antibody, human IgG1, kappa, homodimerized; mutation in both H chains; also called Ho Ab) heavy: not shown light: DIVMTQSPLSLPVTPGEPASISCQASESLVHSNRNTYLHWYLQKPGQSPQLLIYKVSNRFSGVPDRFSGSGSGTDFTLKISRVEAEDVGVYYCSQNTHVPPTFGQGTKVEIERTVAAPSVFIFPPSDEQLKSGTASVVCLLNNFYPREAKVQWKVDNALQSGNSQESVTEQDSKDSTYSLSSTLTLSKADYEKHKVYACEVTHQGLSSPVTKSFNRGEC | 139 % of GpH7-B3/GpL16-k0 (=100)
10 | GpH7-B3 variant L328_14T/GpL16-k0 (antibody, human IgG1, kappa, homodimerized; mutation in both H chains; also called Ho Ab) heavy: not shown light: DIVMTQSPLSLPVTPGEPASISCQASESLVHSNRNTYLHWYLQKPGQSPQLLIYKVSNRFSGVPDRFSGSGSGTDFTLKISRVEAEDVGVYYCSQNTHVPPTFGQGTKVEIERTVAAPSVFIFPPSDEQLKSGTASVVCLLNNFYPREAKVQWKVDNALQSGNSQESVTEQDSKDSTYSLSSTLTLSKADYEKHKVYACEVTHQGLSSPVTKSFNRGEC | 118 % of GpH7-B3/GpL16-k0 (=100)
11 | GpH7-B3 variant I336_08L/GpL16-k0 (antibody, human IgG1, kappa, homodimerized; mutation in both H chains; also called Ho Ab) heavy: not shown light: DIVMTQSPLSLPVTPGEPASISCQASESLVHSNRNTYLHWYLQKPGQSPQLLIYKVSNRFSGVPDRFSGSGSGTDFTLKISRVEAEDVGVYYCSQNTHVPPTFGQGTKVEIERTVAAPSVFIFPPSDEQLKSGTASVVCLLNNFYPREAKVQWKVDNALQSGNSQESVTEQDSKDSTYSLSSTLTLSKADYEKHKVYACEVTHQGLSSPVTKSFNRGEC | 105 % of GpH7-B3/GpL16-k0 (=100)
